Results reported in article PMC11476584.
One block for each molecule: values may come before it.

Molecular target: Apolipoprotein E4 (APOE4), overexpressed in transfected Huh7 cells (human) (UniProt P02649)
Assay: co-IP; APOE precipitated with anti-APOE antibody (sc-13521) and Protein G Sepharose, overnight at 4 °C, from lysates of APOE3- and APOE4-transfected Huh7 cells; Western blot, target bands normalised to the APOE signal

Chain of UniProt P02649 (P02649 19-317): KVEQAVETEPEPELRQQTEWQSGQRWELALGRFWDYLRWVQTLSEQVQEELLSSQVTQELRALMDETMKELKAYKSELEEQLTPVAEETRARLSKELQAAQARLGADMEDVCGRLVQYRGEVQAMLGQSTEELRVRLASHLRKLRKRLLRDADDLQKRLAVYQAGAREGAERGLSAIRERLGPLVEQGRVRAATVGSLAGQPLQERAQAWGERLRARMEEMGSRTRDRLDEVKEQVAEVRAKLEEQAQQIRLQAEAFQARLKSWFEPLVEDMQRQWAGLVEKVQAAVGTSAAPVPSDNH

fold change of the target/APOE band against APOE3-transfected cells: 1.2 fold
Molecule: Voltage-dependent anion-selective channel 1 (VDAC1) (from UniProt P21796 1-283) (natural protein)

fold change of the target/APOE band against APOE3-transfected cells: 2.11 fold
B1: Lon protease (LONP1) (enzyme)
chain: FWEASSRGGGAFSGGEDASEGGAEEGAGGAGGSAGAGEGPVITALTPMTIPDVFPHLPLIAITRNPVFPRFIKIIEVKNKKLVELLRRKVRLAQPYVGVFLKRDDSNESDVVESLDEIYHTGTFAQIHEMQDLGDKLRMIVMGHRRVHISRQLEVEPEEPEAENKHKPRRKSKRGKKEAEDELSARHPAELAMEPTPELPAEVLMVEVENVVHEDFQVTEEVKALTAEIVKTIRDIIALNPLYRESVLQMMQAGQRVVDNPIYLSDMGAALTGAESHELQDVLEETNIPKRLYKALSLLKKEFELSKLQQRLGREVEEKIKQTHRKYLLQEQLKIIKKELGLEKDDKDAIEEKFRERLKELVVPKHVMDVVDEELSKLGLLDNHSSEFNVTRNYLDWLTSIPWGKYSNENLDLARAQAVLEEDHYGMEDVKKRILEFIAVSQLRGSTQGKILCFYGPPGVGKTSIARSIARALNREYFRFSVGGMTDVAEIKGHRRTYVGAMPGKIIQCLKKTKTENPLILIDEVDKIGRGYQGDPSSALLELLDPEQNANFLDHYLDVPVDLSKVLFICTANVTDTIPEPLRDRMEMINVSGYVAQEKLAIAERYLVPQARALCGLDESKAKLSSDVLTLLIKQYCRESGVRNLQKQVEKVLRKSAYKIVSGEAESVEVTPENLQDFVGKPVFTVERMYDVTPPGVVMGLAWTAMGGSTLFVETSLRRPQDKDAKGDKDGSLEVTGQLGEVMKESARIAYTFARAFLMQHAPANDYLVTSHIHLHVPEGATPKDGPSAGCTIVTALLSLAMGRPVRQNLAMTGEVSLTGKILPVGGIKEKTIAAKRAGVTCIVLPAENKKDFYDLAAFITEGLEVHFVEHYREIFDIAFPDEQAEALAVER

fold change of the target/APOE band against APOE3-transfected cells: 1.29 fold
B2: Mitochondrial import receptor subunit TOM40 (TOMM40) (natural protein)
chain: MGNVLAASSPPAGPPPPPAPALVGLPPPPPSPPGFTLPPLGGSLGAGTSTSRSSERTPGAATASASGAAEDGACGCLPNPGTFEECHRKCKELFPIQMEGVKLTVNKGLSNHFQVNHTVALSTIGESNYHFGVTYVGTKQLSPTEAFPVLVGDMDNSGSLNAQVIHQLGPGLRSKMAIQTQQSKFVNWQVDGEYRGSDFTAAVTLGNPDVLVGSGILVAHYLQSITPCLALGGELVYHRRPGEEGTVMSLAGKYTLNNWLATVTLGQAGMHATYYHKASDQLQVGVEFEASTRMQDTSVSFGYQLDLPKANLLFKGSVDSNWIVGATLEKKLPPLPLTLALGAFLNHRKNKFQCGFGLTIG
